Results from patent US20190284293A1, “COMBINATION THERAPY WITH ANTI-CD73 ANTIBODIES” (BRISTOL-MYERS SQUIBB COMPANY, priority 2016, published 2019).

T1: CD32b (FcgRIIb) (Homo sapiens, UniProt P31994)
T1 sequence (P31994 43-310): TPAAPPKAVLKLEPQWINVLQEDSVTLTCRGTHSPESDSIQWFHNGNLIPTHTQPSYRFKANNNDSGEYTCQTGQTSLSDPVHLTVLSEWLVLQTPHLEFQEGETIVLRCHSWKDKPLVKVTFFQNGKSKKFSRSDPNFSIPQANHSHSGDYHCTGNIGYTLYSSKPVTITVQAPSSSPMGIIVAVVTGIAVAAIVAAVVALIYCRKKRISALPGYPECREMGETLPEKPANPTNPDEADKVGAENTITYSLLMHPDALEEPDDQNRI

T2: CD32a-R131 (FcgRIIa-R131) (Homo sapiens, UniProt P12318, H167R)
T2 sequence (P12318 34-217 H167R limits assumed): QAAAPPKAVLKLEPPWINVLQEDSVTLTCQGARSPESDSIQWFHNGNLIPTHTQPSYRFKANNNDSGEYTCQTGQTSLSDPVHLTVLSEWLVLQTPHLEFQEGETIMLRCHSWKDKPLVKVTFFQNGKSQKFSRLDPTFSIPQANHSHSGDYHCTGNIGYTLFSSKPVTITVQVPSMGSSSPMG

T3: CD32a-H131 (FcgRIIa-H131) (Homo sapiens, UniProt P12318)
T3 sequence (P12318 34-217 limits assumed): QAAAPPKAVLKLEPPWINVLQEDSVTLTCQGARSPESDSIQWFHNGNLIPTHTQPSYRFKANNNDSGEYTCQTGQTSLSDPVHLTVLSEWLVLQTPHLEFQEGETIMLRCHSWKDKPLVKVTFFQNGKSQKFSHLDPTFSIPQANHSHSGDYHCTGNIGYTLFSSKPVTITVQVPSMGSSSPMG


Experiments:
Assay in all cases: SPR, antibody binding to anti-his Fab captured FcgR-his (% Rmax)
Conditions in all cases: 1 μM antibody
CD32b (FcgRIIb) = target: T1, CD32b (FcgRIIb)
Method: (§1) The binding of antibodies to Fc gamma receptors (FcγRs or FcgRs) was studied using biosensor technologies including Biacore surface plasmon resonance (SPR) and Fortebio Biolayer Interferometry (BLI). SPR studies were performed on a Biacore T100 instrument (GE Healthcare) at 25° C. The Fab fragment from a murine anti-6×His antibody was immobilized on a CM5 sensor chip using EDC/NHS to a density of −3000 RU. Various his-tagged FcgRs (7 ug/ml) were captured via the C-terminal his-tag using a contact time of 30 s at 10 ul/min, and the binding of 1.0 μM antibody was evaluated in a running buffer of 10 mM NaPO4, 130 mM NaCl, 0.05% p20 (PBS-T) pH 7.1. FcgRs used for these experiments included CD64 (FcgRI), CD32a-H131 (FcgRIIa-H131), CD32a-R131 (FcgRIIa-R131), CD32b (FcgRIIb), CD16a-V158 (FcgRIIIa-V158), CD16b-NA1 (FcgRIIIb-NA1), and CD16B-NA2 (FcgRIIIb-NA2). BLI experiments were performed on a Fortebio Octet RED instrument (Pall, Fortebio) at 25° C. in 10 mM NaPO4, 130 mM NaCl, 0.05% p20 (PBS-T) pH 7.1. Antibodies were captured out of undiluted expression supernatants on protein A coated sensors, followed by the binding of 1 μM hCD32a-H131, hCD32a-R131, hCD32b, hCD16a-V158, or 0.1 μM hCD64 analytes.

CD16B-NA2 (FcgRIIIb-NA2) = CD16B-NA2 (FcgRIIIb-NA2) (Homo sapiens, UniProt O75015)
Method: as §1

[1] = target: T2, CD32a-R131 (FcgRIIa-R131)
Method: as §1

CD64 (FcgRI) = CD64 (FcgRI) (Homo sapiens, UniProt P12314)
Method: as §1

[2] = target: T3, CD32a-H131 (FcgRIIa-H131)
Method: as §1

[3] = target: CD16a-V158 (FcgRIIIa-V158) (Homo sapiens, UniProt P08637, F176V)
Method: as §1

CD16a-V158 (FcgRIIIa-V158), sequence (P08637 17-208 F176V limits assumed): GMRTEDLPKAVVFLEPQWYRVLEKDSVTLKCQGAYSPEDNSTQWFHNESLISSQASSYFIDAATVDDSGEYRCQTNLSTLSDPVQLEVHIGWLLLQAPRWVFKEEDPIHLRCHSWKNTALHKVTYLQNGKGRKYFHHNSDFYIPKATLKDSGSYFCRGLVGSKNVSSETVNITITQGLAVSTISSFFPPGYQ
CD16B-NA2 (FcgRIIIb-NA2), sequence (O75015 17-200 limits assumed): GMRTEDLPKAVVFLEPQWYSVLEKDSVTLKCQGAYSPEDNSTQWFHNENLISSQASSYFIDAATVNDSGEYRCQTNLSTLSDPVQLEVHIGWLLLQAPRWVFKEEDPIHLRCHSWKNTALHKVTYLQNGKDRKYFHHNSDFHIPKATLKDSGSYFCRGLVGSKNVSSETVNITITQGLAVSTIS
CD64 (FcgRI), sequence (P12314 16-374): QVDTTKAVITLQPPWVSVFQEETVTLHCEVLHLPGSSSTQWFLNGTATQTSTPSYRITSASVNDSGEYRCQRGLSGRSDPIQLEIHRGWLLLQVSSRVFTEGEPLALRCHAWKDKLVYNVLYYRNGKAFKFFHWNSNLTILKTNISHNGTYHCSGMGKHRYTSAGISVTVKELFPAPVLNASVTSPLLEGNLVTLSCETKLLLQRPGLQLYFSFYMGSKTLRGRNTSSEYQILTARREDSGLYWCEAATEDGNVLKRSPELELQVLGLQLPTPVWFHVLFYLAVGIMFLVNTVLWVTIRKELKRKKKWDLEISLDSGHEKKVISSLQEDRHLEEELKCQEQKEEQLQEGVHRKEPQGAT

% Rmax hCD32b (CD32b (FcgRIIb)) [%]	% Rmax hCD16B-NA2 (CD16B-NA2 (FcgRIIIb-NA2)) [%]	% Rmax hCD32a-R131 [1] [%]	% Rmax hCD64 (CD64 (FcgRI)) [%]	% Rmax hCD32a-H131 [2] [%]	% Rmax hCD16a-V158 [3] [%]	Molecule
5	0	17	2	44	1	mAb11-IgG2.3 (protein, left off: another chain or arm of the molecule) constant: ASTKGPSVFPLAPCSRSTSESTAALGCLVKDYFPEPVTVSWNSGALTSGVHTFPAVLQSSGLYSLSSVVTVPSSNFGTQTYTCNVDHKPSNTKVDKTVERKSCVECPPCPAPPVAGPSVFLFPPKPKDTLMISRTPEVTCVVVDVSHEDPEVQFNWYVDGVEVHNAKTKPREEQFNSTFRVVSVLTVVHQDWLNGKEYKCKVSNKGLPAPIEKTISKTKGQPREPQVYTLPPSREEMTKNQVSLTCLVKGFYPSDIAVEWESNGQPENNYKTTPPMLDSDGSFFLYSKLTVDKSRWQQGNVFSCSVMHEALHNHYTQKSLSLSPGK
1	0	7	2	39	1	mAb12-IgG2.3 (protein, left off: another chain or arm of the molecule) constant: ASTKGPSVFPLAPCSRSTSESTAALGCLVKDYFPEPVTVSWNSGALTSGVHTFPAVLQSSGLYSLSSVVTVPSSNFGTQTYTCNVDHKPSNTKVDKTVERKSCVECPPCPAPPVAGPSVFLFPPKPKDTLMISRTPEVTCVVVDVSHEDPEVQFNWYVDGVEVHNAKTKPREEQFNSTFRVVSVLTVVHQDWLNGKEYKCKVSNKGLPAPIEKTISKTKGQPREPQVYTLPPSREEMTKNQVSLTCLVKGFYPSDIAVEWESNGQPENNYKTTPPMLDSDGSFFLYSKLTVDKSRWQQGNVFSCSVMHEALHNHYTQKSLSLSPGK
1	0	6	1	–	1	mAb12-IgG2.5 (protein, left off: another chain or arm of the molecule) constant: ASTKGPSVFPLAPSSRSTSESTAALGCLVKDYFPEPVTVSWNSGALTSGVHTFPAVLQSSGLYSLSSVVTVPSSNFGTQTYTCNVDHKPSNTKVDKTVERKCCVECPPCPAPPVAGPSVFLFPPKPKDTLMISRTPEVTCVVVDVSHEDPEVQFNWYVDGVEVHNAKTKPREEQFNSTFRVVSVLTVVHQDWLNGKEYKCKVSNKGLPAPIEKTISKTKGQPREPQVYTLPPSREEMTKNQVSLTCLVKGFYPSDIAVEWESNGQPENNYKTTPPMLDSDGSFFLYSKLTVDKSRWQQGNVFSCSVMHEALHNHYTQKSLSLSPGK

The next lines start with the molecule.

Molecule	% Rmax hCD32b (CD32b (FcgRIIb)) [%]	% Rmax hCD16B-NA2 (CD16B-NA2 (FcgRIIIb-NA2)) [%]	% Rmax hCD32a-R131 [1] [%]	% Rmax hCD64 (CD64 (FcgRI)) [%]	% Rmax hCD32a-H131 [2] [%]	% Rmax hCD16a-V158 [3] [%]
mAb8-IgG2.3G1-AY-V27 (protein, left off: another chain or arm of the molecule) constant: ASTKGPSVFPLAPCSRSTSESTAALGCLVKDYFPEPVTVSWNSGALTSGVHTFPAVLQSSGLYSLSSVVTVPSSNFGTQTYTCNVDHKPSNTKVDKTVERKSCVECPPCPAPELLGGPSVFLFPPKPKDTLMISRTPEVTCVVVDVEHEDPEVKFNWYVDGVEVHNAKTKPREEQYNSTYRVVSVLTVLHQDWLNGKEYKCKVSNKALPAPIEKTISKAKGQPREPQVYTLPPSREEMTKNQVSLTCLVKGFYPSDIAVEWESNGQPENNYKTTPPVLDSDGSFFLYSKLTVDKSRWQQGNVFSCSVMHEALHNHYTQKSLSLSPGK	67	7	80	78	67	–
mAb10-IgG2.3G1-AY-V27 (protein, left off: another chain or arm of the molecule) constant: ASTKGPSVFPLAPCSRSTSESTAALGCLVKDYFPEPVTVSWNSGALTSGVHTFPAVLQSSGLYSLSSVVTVPSSNFGTQTYTCNVDHKPSNTKVDKTVERKSCVECPPCPAPELLGGPSVFLFPPKPKDTLMISRTPEVTCVVVDVEHEDPEVKFNWYVDGVEVHNAKTKPREEQYNSTYRVVSVLTVLHQDWLNGKEYKCKVSNKALPAPIEKTISKAKGQPREPQVYTLPPSREEMTKNQVSLTCLVKGFYPSDIAVEWESNGQPENNYKTTPPVLDSDGSFFLYSKLTVDKSRWQQGNVFSCSVMHEALHNHYTQKSLSLSPGK	40	3	57	69	–	12
mAb6-IgG2.3 (protein, left off: another chain or arm of the molecule) constant: ASTKGPSVFPLAPCSRSTSESTAALGCLVKDYFPEPVTVSWNSGALTSGVHTFPAVLQSSGLYSLSSVVTVPSSNFGTQTYTCNVDHKPSNTKVDKTVERKSCVECPPCPAPPVAGPSVFLFPPKPKDTLMISRTPEVTCVVVDVSHEDPEVQFNWYVDGVEVHNAKTKPREEQFNSTFRVVSVLTVVHQDWLNGKEYKCKVSNKGLPAPIEKTISKTKGQPREPQVYTLPPSREEMTKNQVSLTCLVKGFYPSDIAVEWESNGQPENNYKTTPPMLDSDGSFFLYSKLTVDKSRWQQGNVFSCSVMHEALHNHYTQKSLSLSPGK	3	0	14	3	66	1
mAb4-IgG2.3 (protein, left off: another chain or arm of the molecule) constant: ASTKGPSVFPLAPCSRSTSESTAALGCLVKDYFPEPVTVSWNSGALTSGVHTFPAVLQSSGLYSLSSVVTVPSSNFGTQTYTCNVDHKPSNTKVDKTVERKSCVECPPCPAPPVAGPSVFLFPPKPKDTLMISRTPEVTCVVVDVSHEDPEVQFNWYVDGVEVHNAKTKPREEQFNSTFRVVSVLTVVHQDWLNGKEYKCKVSNKGLPAPIEKTISKTKGQPREPQVYTLPPSREEMTKNQVSLTCLVKGFYPSDIAVEWESNGQPENNYKTTPPMLDSDGSFFLYSKLTVDKSRWQQGNVFSCSVMHEALHNHYTQKSLSLSPGK	1	0	6	1	39	1
mAb5-IgG2.3 (protein, left off: another chain or arm of the molecule) constant: ASTKGPSVFPLAPCSRSTSESTAALGCLVKDYFPEPVTVSWNSGALTSGVHTFPAVLQSSGLYSLSSVVTVPSSNFGTQTYTCNVDHKPSNTKVDKTVERKSCVECPPCPAPPVAGPSVFLFPPKPKDTLMISRTPEVTCVVVDVSHEDPEVQFNWYVDGVEVHNAKTKPREEQFNSTFRVVSVLTVVHQDWLNGKEYKCKVSNKGLPAPIEKTISKTKGQPREPQVYTLPPSREEMTKNQVSLTCLVKGFYPSDIAVEWESNGQPENNYKTTPPMLDSDGSFFLYSKLTVDKSRWQQGNVFSCSVMHEALHNHYTQKSLSLSPGK	4	0	30	6	100	3
mAb10-IgG2.5 (protein, left off: another chain or arm of the molecule) constant: ASTKGPSVFPLAPSSRSTSESTAALGCLVKDYFPEPVTVSWNSGALTSGVHTFPAVLQSSGLYSLSSVVTVPSSNFGTQTYTCNVDHKPSNTKVDKTVERKCCVECPPCPAPPVAGPSVFLFPPKPKDTLMISRTPEVTCVVVDVSHEDPEVQFNWYVDGVEVHNAKTKPREEQFNSTFRVVSVLTVVHQDWLNGKEYKCKVSNKGLPAPIEKTISKTKGQPREPQVYTLPPSREEMTKNQVSLTCLVKGFYPSDIAVEWESNGQPENNYKTTPPMLDSDGSFFLYSKLTVDKSRWQQGNVFSCSVMHEALHNHYTQKSLSLSPGK	1	0	5	1	–	1
